What all share (experiment): EMSA
For orientation: A gel shift assay detects complexes by their altered migration in electrophoresis.

Data set [1] has as its target T1, RecQ helicase (Escherichia coli, UniProt P15043 1-609).
Data set [2] has as its target T1, RecQ helicase. This is another data set of the same source.
The target in data set [3] is T1, RecQ helicase. This is another data set of the same source.

Read-outs that look alike come from different tables or passages of the source.

T1 sequence (P15043 whole entry): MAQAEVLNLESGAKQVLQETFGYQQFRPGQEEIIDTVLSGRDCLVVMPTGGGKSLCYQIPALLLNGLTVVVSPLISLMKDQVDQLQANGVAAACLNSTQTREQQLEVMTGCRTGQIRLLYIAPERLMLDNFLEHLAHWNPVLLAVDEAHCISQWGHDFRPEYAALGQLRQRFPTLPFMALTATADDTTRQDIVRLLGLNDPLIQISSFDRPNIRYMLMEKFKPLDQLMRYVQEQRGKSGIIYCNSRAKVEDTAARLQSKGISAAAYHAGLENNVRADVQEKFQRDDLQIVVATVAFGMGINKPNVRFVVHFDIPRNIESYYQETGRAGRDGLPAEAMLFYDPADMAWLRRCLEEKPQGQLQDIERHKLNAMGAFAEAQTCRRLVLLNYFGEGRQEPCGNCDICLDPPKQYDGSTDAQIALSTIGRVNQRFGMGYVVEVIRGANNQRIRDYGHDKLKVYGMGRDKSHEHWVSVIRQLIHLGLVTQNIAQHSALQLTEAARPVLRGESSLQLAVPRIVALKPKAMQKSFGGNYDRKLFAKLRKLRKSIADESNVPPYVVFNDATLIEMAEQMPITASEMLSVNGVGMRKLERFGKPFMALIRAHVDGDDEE

B1: dT52 (ssDNA)
DNA: TTTTTTTTTTTTTTTTTTTTTTTTTTTTTTTTTTTTTTTTTTTTTTTTTTTT
B1: the dissociation constant Kd with RecQ helicase [1] came to 170 ± 10 nM; in the data set with RecQ helicase [2], 150 ± 20 nM.

Take TTTTTT (ssDNA) [dT6]: in the data set with RecQ helicase [3], the binding result is given as “no binding”.

On to TTTTTTTTTTTTTTTTTTTTTTTTT (ssDNA) [dT25], for which the Kd in the data set with RecQ helicase [1] was found to be 1000 ± 100 nM; with RecQ helicase [2], 400 ± 60 nM.

For orientation: Kd means the concentration at which binding is half-saturated. Lower therefore signals tighter binding.

The values above are taken from paper PMC3330151.
